Results as given in IntAct's records for PubMed 30510991.

B1: Forkhead box protein P3 (Homo sapiens), Q9BZS1 (parent)
chain: MPNPRPGKPSAPSLALGPSPGASPSWRAAPKASDLLGARGPGGTFQGRDLRGGAHASSSSLNPMPPSQLQLPTLPLVMVAPSGARLGPLPHLQALLQDRPHFMHQLSTVDAHARTPVLQVHPLESPAMISLTPPTTATGVFSLKARPGLPPGINVASLEWVSREPALLCTFPNPSAPRKDSTLSAVPQSSYPLLANGVCKWPGCEKVFEEPEDFLKHCQADHLLDEKGRAQCLLQREMVQSLEQQLVLEKEKLSAMQAHLAGKMALTKASSVASSDKGSCCIVAAGSQGPVVPAWSGPREAPDSLFAVRRHLWGSHGNSTFPEFLHNMDYFKFHNMRPPFTYATLIRWAILEAPEKQRTLNEIYHWFTRMFAFFRNHPATWKNAIRHNLSLHKCFVRVESEKGAVWTVDELEFRKKRSQRPSRCSNPTPGP

Variants of: B1
Settings: with ezh2_human EZH2, Q15910
Sequence of ezh2_human EZH2, Q15910 (Q15910 whole entry, looked up): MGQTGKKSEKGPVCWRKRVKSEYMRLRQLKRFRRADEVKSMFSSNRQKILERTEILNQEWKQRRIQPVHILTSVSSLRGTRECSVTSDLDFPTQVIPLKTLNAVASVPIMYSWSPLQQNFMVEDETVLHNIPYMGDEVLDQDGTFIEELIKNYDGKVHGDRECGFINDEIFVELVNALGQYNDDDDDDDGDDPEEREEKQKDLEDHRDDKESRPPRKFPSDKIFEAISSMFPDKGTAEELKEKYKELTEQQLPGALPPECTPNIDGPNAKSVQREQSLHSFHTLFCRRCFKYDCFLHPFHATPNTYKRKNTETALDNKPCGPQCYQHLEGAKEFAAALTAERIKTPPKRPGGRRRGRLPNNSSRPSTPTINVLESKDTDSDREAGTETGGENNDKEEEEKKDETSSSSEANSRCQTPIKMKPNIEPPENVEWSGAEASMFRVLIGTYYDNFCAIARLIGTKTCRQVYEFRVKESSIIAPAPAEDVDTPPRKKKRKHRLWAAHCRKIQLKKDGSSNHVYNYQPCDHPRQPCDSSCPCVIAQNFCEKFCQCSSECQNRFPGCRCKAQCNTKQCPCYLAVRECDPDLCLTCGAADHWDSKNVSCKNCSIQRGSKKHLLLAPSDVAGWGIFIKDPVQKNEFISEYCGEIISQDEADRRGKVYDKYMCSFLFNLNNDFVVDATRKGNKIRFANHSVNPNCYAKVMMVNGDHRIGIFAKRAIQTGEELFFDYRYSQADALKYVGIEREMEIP

Row | effect of a mutation on the interaction | Variant
1 | decreasing interaction | MPNPRPGKPSAPSLALGPSPGASPSWRAAPKASDLLGARGPGGTFQGRDLRGGAHASSSSLNPMPPSQLQLPTLPLVMVAPSGARLGPLPHLQALLQDRPHFMHQLSTVDAHARTPVLQVHPLESPAMISLTPPTTATGVFSLKARPGLPPGINVASLEWVSREPALLCTFPNPSAPRKDSTLSAVPQSSYPLLANGVCKWPGCEKVFEEPEDFLKHCQADHLLDEKGRAQGLLQREMVQSLEQQLVLEKEKLSAMQAHLAGKMALTKASSVASSDKGSCCIVAAGSQGPVVPAWSGPREAPDSLFAVRRHLWGSHGNSTFPEFLHNMDYFKFHNMRPPFTYATLIRWAILEAPEKQRTLNEIYHWFTRMFAFFRNHPATWKNAIRHNLSLHKCFVRVESEKGAVWTVDELEFRKKRSQRPSRCSNPTPGP [C232G]
